The text below walks through data of article PMC7572793.

For assay [1], the target named is rPfCSP_∆ABCD (Plasmodium falciparum) (UniProt Q7K740). In words: ITC.
Assay [2] has as its target recombinant full-length PfCSP (rPfCSP_FL) (Plasmodium falciparum) (UniProt Q7K740). In words: ITC.

L9 (antibody): in assay [1], the Kd amounted to 73 nM and the stoichiometry N (antigen binding sites per rPfCSP) was 12.7. Further, in assay [2], the KD1 (binding event 1) is 22 nM, the KD2 (binding event 2) stood at 47 nM, the N of binding event 1 (binding sites) was 2 and the N of binding event 2 (binding sites) came to 9. Further, the stoichiometry N (antigen binding sites per rPfCSP) in assay [2] turned out to be 11.2.
